Results published in PMC12804361.

How the values were obtained:
[1] = biological target: VcCap5; assay: AUC; sedimentation velocity, apo VcCap5 at 0.8 mg/ml, 20 mM Tris-HCl pH 7.5, 200 mM NaCl, 55,000 rpm, 20 °C; c(s) fit in SEDFIT; monomer to dimer
[2] = biological target: VcCap5; assay: AUC; sedimentation velocity, VcCap5 with 3'2'-cGAMP, 0.8 mg/ml, 20 mM Tris-HCl pH 7.5, 200 mM NaCl, 55,000 rpm, 20 °C; c(s) fit in SEDFIT; dimer to tetramer

Work on VcCap5 (enzyme) yielded a stoichiometry N [1] of 2 and a stoichiometry N [2] of 4.
